Sequences and labels used below:
B1: human ATRX DAXX-binding motif (DBM) peptide, wild type [human] / human DAXX four-helix bundle domain (4HB, residues 50–144) [human] (parent complex)
chain 1: NDPENRIAKKMLLEEIKANLSSDE
chain 2: SSSSGGKKCYKLENEKLFEEFLELCKMQTADHPEVVPFLYNRQQRAHSLFLASAEFCNILSRVLSRARSRPAKLYVYINELCTVLKAHSAKKKLN
B2: human DAXX four-helix bundle domain (4HB, residues 50–144) [human] / human ATRX DAXX-binding motif (DBM) peptide, wild type [human] (parent complex)
chain 1: B1 chain 2
chain 2: NDPENRIAKKMLLEEIKANLSSDE

Two variants from paper PMC5662737, “Structural and mechanistic insights into ATRX-dependent and -independent functions of the histone chaperone DAXX” (Nature Communications, 2017) can be followed below.

One test covers variants of B1. Kind of test: ITC.
Turning to chain 1 I16A, the Kd is 12.9 µM.

The variants in a further test derive from B2. The experiment in a line: ITC.
Regarding chain 1 F38A, the dissociation constant Kd stood at 7.5 µM.
